Data from article PMC4046795.

Target: recombinant human EGFR/ErbB1 Fc chimera (rhEGFR) (human, UniProt P00533 25-645)
Assay: SPR

B1: E07 anti-EGFR aptamer (structured_RNA)
RNA: GGCGCUCCGACCUUAGUCUCUGUGCCGCUAUAAUGCACGGAUUUAAUCGCCGUAGAAAAGCAUGUCAAAGCCGGAACCGUGUAGCACAGCAGAGAAUUAAAUGCCCGCCAUGACCAG
modifications: 2'-fluoropyrimidine
Which Kd does the source give for B1 here?
Its Kd is 112 nM.
